The text below walks through data of patent publication US20250002610A1 (Genmab, published 2025).

For test [1], the target named is T1, human DR4 (Death Receptor 4), cell surface expressed on human tumor cell lines (human, UniProt O00220 24-468).
T1 construct: also called TNFRSF10A; TRAIL-R1
T1 sequence: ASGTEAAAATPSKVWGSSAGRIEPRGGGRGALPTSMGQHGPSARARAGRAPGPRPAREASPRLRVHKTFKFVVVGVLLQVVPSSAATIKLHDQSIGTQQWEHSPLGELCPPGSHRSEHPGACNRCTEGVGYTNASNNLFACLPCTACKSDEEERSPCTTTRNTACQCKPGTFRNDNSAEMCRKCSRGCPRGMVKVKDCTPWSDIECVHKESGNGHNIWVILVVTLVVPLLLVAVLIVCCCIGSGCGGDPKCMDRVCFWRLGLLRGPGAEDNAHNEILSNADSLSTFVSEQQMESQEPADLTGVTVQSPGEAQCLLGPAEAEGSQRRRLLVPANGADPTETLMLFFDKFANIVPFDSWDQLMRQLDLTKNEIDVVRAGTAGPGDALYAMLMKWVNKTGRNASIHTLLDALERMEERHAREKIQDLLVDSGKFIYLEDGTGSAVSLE
Put plainly: flow cytometry, DLD-1 cells, average ± SEM.

Test [2] deals with T2, human FAPα (Fibroblast activation protein alpha), cell surface expressed (human, UniProt Q12884 1-760).
T2 construct: Endogenous on human lung fibroblasts and CAFs
T2 sequence: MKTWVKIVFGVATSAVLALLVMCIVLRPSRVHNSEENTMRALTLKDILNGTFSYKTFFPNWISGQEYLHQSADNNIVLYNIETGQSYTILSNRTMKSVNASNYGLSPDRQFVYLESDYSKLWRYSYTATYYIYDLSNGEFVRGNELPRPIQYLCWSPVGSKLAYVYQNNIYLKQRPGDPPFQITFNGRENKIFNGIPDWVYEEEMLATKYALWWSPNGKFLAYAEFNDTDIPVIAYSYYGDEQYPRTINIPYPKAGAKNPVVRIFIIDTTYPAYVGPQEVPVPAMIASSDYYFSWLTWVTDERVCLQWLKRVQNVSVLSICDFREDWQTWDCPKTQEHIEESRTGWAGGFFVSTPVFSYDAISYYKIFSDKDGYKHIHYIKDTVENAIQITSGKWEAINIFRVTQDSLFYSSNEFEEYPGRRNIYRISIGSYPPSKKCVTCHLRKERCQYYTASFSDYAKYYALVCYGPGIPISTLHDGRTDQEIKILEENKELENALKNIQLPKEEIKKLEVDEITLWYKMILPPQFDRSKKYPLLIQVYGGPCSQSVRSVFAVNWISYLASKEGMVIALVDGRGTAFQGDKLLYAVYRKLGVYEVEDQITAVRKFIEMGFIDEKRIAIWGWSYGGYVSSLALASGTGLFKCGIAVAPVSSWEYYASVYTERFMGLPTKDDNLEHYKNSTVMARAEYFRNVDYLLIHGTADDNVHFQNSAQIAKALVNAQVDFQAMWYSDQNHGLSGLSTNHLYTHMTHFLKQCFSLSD
Put plainly: flow cytometry, human lung fibroblasts, average ± SEM. On the procedure: Binding of bispecific or monoclonal antibodies carrying the anti-FAPα arm derived from IgG1-FAPα-FERL (BisG1-FAPα-FERL/DR4-FERR, BisG1-FAPα-FERL/b12-FERR, and IgG1-FAPα-FERL) to cell surface expressed human FAPα was analyzed by flow cytometry using human lung fibroblasts and CAFs, which endogenously express FAPα. BisG1-b12-FERL/b12-FERR was used as negative control.
Human lung fibroblasts and CAFs (50,000 cells/well) were seeded in 96-Well round bottom plates (Greiner Bio-one, Cat #650101). Antibody dilutions were prepared using fluorescence-activated cell sorting (FACS) buffer, consisting of phosphate buffer saline (PBS, Lonza, Cat #BE17-517Q)+1% Bovine Serum Albumin (BSA, Roche, Cat #10735086001)+0.02% Sodium Azide (Bio-World, Cat #41920044-3). Plates were centrifuged, supernatant was removed, cells were resuspended in 50 μL of human Fc Block (BD, Cat #564220, diluted 1:100 in FACS buffer) and 50 μL of viability stain TO-PRO-3 Iodide (Thermo Fisher, Cat #T3605, diluted 1: 25,000 in FACS buffer), and incubated for 15 min at 4° C. Plates were washed three times with FACS buffer. Plates were centrifuged, supernatant was removed, cells were resuspended in 50 μL of antibody dilutions (concentration range 90-0.0005 μg/mL, three-fold dilution steps using FACS buffer) of BisG1-FAPα-FERL/DR4-FERR, BisG1-FAPα-FERL/b12-FERR, BisG1-b12-FERL/b12-FERR (top six concentrations only for CAFs culture) or IgG1-FAPα-FERL (top four concentrations only for CAFs culture) and incubated for 30 min at 4° C. Cells were washed three times with FACS buffer and resuspended in 50 μL of Fluorescein isothiocyanate (FITC)-labeled polyclonal antibody goat anti-mouse IgG1 (Jackson Immuno Research, Cat #109-096-097, diluted 1:100 in FACS buffer). […] Antibody binding to viable cells (TO-PRO-3 negative) was analyzed by flow cytometry on a FACSCelesta™ (BD biosciences) and data were processed using FlowJo_v10.8.1 (FlowJo LLC). Geomean fluorescence intensity, gMFI, was determined and visualized using GraphPad Prism.

B1: IgG1-DR4-FERR (antibody, V domains shown)
VH: QVQLQESGPGLVKPSGTLSLTCAVSGGSISSYSWWSWIRQPPGKGLEWIGELYHSGSTNYNPSLKSRVTISVDKSKNQFSLKLRSVTAADTAVYYCVRGVATIDYWGQGTLVTVSS
VL: QSALTQPPSASGSPGQSVTISCTGTSSDVGGYNFVSWYQQDPGKAPKLLIYEVTKRPSGVPDRFSGSKSGNTASLTVSGLQAEDEADYYCSSYAGSNNVMFGGGTKLTVLG
notes: Bivalent monoclonal IgG1 lambda
Regarding B1, the EC50 in test [1] is 0.26 µg/mL.

B2: BisG1-FAPα-FERL/b12-FERR (bispecific antibody, human IgG1, kappa)
heavy 1: EVQLLESGGGLVQPGGSPRLSCEASGFTFSSYALSWVRQAPGKGLEWVSAISGSGGGRYYADSVKGRFTISRDNSKNTLFLQMNSLRAEDTAVYYCAKEGYSSSGTYWDHWGQGTLVTVSSASTKGPSVFPLAPSSKSTSGGTAALGCLVKDYFPEPVTVSWNSGALTSGVHTFPAVLQSSGLYSLSSVVTVPSSSLGTQTYICNVNHKPSNTKVDKRVEPKSCDKTHTCPPCPAPEFERGPSVFLFPPKPKDTLMISRTPEVTCVVVDVSHEDPEVKFNWYVDGVEVHNAKTKPREEQYNSTYRVVSVLTVLHQDWLNGKEYKCKVSNKALPAPIEKTISKAKGQPREPQVYTLPPSREEMTKNQVSLTCLVKGFYPSDIAVEWESNGQPENNYKTTPPVLDSDGSFLLYSKLTVDKSRWQQGNVFSCSVMHEALHNHYTQKSLSLSPG
light 1: AIQMTQSPSSVSASVGDRVTITCRASQGVSSWLAWYQQKPGRAPKLLIYVASTLQSGVPSRFSGSGSGTDFTLTINSLQPEDFATYYCQQANSFPPTFGQGTRLEMKRTVAAPSVFIFPPSDEQLKSGTASVVCLLNNFYPREAKVQWKVDNALQSGNSQESVTEQDSKDSTYSLSSTLTLSKADYEKHKVYACEVTHQGLSSPVTKSFNRGEC
heavy 2: QVQLVQSGAEVKKPGASVKVSCQASGYRFSNFVIHWVRQAPGQRFEWMGWINPYNGNKEFSAKFQDRVTFTADTSANTAYMELRSLRSADTAVYYCARVGPYSWDDSPQDNYYMDVWGKGTTVIVSSASTKGPSVFPLAPSSKSTSGGTAALGCLVKDYFPEPVTVSWNSGALTSGVHTFPAVLQSSGLYSLSSVVTVPSSSLGTQTYICNVNHKPSNTKVDKRVEPKSCDKTHTCPPCPAPEFERGPSVFLFPPKPKDTLMISRTPEVTCVVVDVSHEDPEVKFNWYVDGVEVHNAKTKPREEQYNSTYRVVSVLTVLHQDWLNGKEYKCKVSNKALPAPIEKTISKAKGQPREPQVYTLPPSREEMTKNQVSLTCLVKGFYPSDIAVEWESNGQPENNYKTTPPVLDSDGSFFLYSRLTVDKSRWQQGNVFSCSVMHEALHNHYTQKSLSLSPG
light 2: EIVLTQSPGTLSLSPGERATFSCRSSHSIRSRRVAWYQHKPGQAPRLVIHGVSNRASGISDRFSGSGSGTDFTLTITRVEPEDFALYYCQVYGASSYTFGQGTKLERKRTVAAPSVFIFPPSDEQLKSGTASVVCLLNNFYPREAKVQWKVDNALQSGNSQESVTEQDSKDSTYSLSSTLTLSKADYEKHKVYACEVTHQGLSSPVTKSFNRGEC
B2: a half-maximal effect in test [2] (EC50) was put at 0.041 µg/mL.

B3: IgG1-FAPα-FERL (antibody)
heavy: EVQLLESGGGLVQPGGSPRLSCEASGFTFSSYALSWVRQAPGKGLEWVSAISGSGGGRYYADSVKGRFTISRDNSKNTLFLQMNSLRAEDTAVYYCAKEGYSSSGTYWDHWGQGTLVTVSSASTKGPSVFPLAPSSKSTSGGTAALGCLVKDYFPEPVTVSWNSGALTSGVHTFPAVLQSSGLYSLSSVVTVPSSSLGTQTYICNVNHKPSNTKVDKRVEPKSCDKTHTCPPCPAPEFERGPSVFLFPPKPKDTLMISRTPEVTCVVVDVSHEDPEVKFNWYVDGVEVHNAKTKPREEQYNSTYRVVSVLTVLHQDWLNGKEYKCKVSNKALPAPIEKTISKAKGQPREPQVYTLPPSREEMTKNQVSLTCLVKGFYPSDIAVEWESNGQPENNYKTTPPVLDSDGSFLLYSKLTVDKSRWQQGNVFSCSVMHEALHNHYTQKSLSLSPG
light: AIQMTQSPSSVSASVGDRVTITCRASQGVSSWLAWYQQKPGRAPKLLIYVASTLQSGVPSRFSGSGSGTDFTLTINSLQPEDFATYYCQQANSFPPTFGQGTRLEMKRTVAAPSVFIFPPSDEQLKSGTASVVCLLNNFYPREAKVQWKVDNALQSGNSQESVTEQDSKDSTYSLSSTLTLSKADYEKHKVYACEVTHQGLSSPVTKSFNRGEC
notes: Bivalent monoclonal IgG1 kappa
Turning to B3, the 50% effective concentration (EC50) in test [2] worked out at 0.015 µg/mL.

B4: BisG1-b12-FERL/DR4-FERR (bispecific antibody, human IgG1, kappa, lambda)
heavy 1: QVQLVQSGAEVKKPGASVKVSCQASGYRFSNFVIHWVRQAPGQRFEWMGWINPYNGNKEFSAKFQDRVTFTADTSANTAYMELRSLRSADTAVYYCARVGPYSWDDSPQDNYYMDVWGKGTTVIVSSASTKGPSVFPLAPSSKSTSGGTAALGCLVKDYFPEPVTVSWNSGALTSGVHTFPAVLQSSGLYSLSSVVTVPSSSLGTQTYICNVNHKPSNTKVDKRVEPKSCDKTHTCPPCPAPEFERGPSVFLFPPKPKDTLMISRTPEVTCVVVDVSHEDPEVKFNWYVDGVEVHNAKTKPREEQYNSTYRVVSVLTVLHQDWLNGKEYKCKVSNKALPAPIEKTISKAKGQPREPQVYTLPPSREEMTKNQVSLTCLVKGFYPSDIAVEWESNGQPENNYKTTPPVLDSDGSFLLYSKLTVDKSRWQQGNVFSCSVMHEALHNHYTQKSLSLSPG
light 1: EIVLTQSPGTLSLSPGERATFSCRSSHSIRSRRVAWYQHKPGQAPRLVIHGVSNRASGISDRFSGSGSGTDFTLTITRVEPEDFALYYCQVYGASSYTFGQGTKLERKRTVAAPSVFIFPPSDEQLKSGTASVVCLLNNFYPREAKVQWKVDNALQSGNSQESVTEQDSKDSTYSLSSTLTLSKADYEKHKVYACEVTHQGLSSPVTKSFNRGEC
heavy 2: QVQLQESGPGLVKPSGTLSLTCAVSGGSISSYSWWSWIRQPPGKGLEWIGELYHSGSTNYNPSLKSRVTISVDKSKNQFSLKLRSVTAADTAVYYCVRGVATIDYWGQGTLVTVSSASTKGPSVFPLAPSSKSTSGGTAALGCLVKDYFPEPVTVSWNSGALTSGVHTFPAVLQSSGLYSLSSVVTVPSSSLGTQTYICNVNHKPSNTKVDKRVEPKSCDKTHTCPPCPAPEFERGPSVFLFPPKPKDTLMISRTPEVTCVVVDVSHEDPEVKFNWYVDGVEVHNAKTKPREEQYNSTYRVVSVLTVLHQDWLNGKEYKCKVSNKALPAPIEKTISKAKGQPREPQVYTLPPSREEMTKNQVSLTCLVKGFYPSDIAVEWESNGQPENNYKTTPPVLDSDGSFFLYSRLTVDKSRWQQGNVFSCSVMHEALHNHYTQKSLSLSPG
light 2: QSALTQPPSASGSPGQSVTISCTGTSSDVGGYNFVSWYQQDPGKAPKLLIYEVTKRPSGVPDRFSGSKSGNTASLTVSGLQAEDEADYYCSSYAGSNNVMFGGGTKLTVLGQPKAAPSVTLFPPSSEELQANKATLVCLISDFYPGAVTVAWKADSSPVKAGVETTTPSKQSNNKYAASSYLSLTPEQWKSHRSYSCQVTHEGSTVEKTVAPTECS
notes: Fab-arm exchange of IgG1-b12-FERL and IgG1-DR4-FERR; also called bsIgG1-ctrl-FERLxDR4-FERR
For B4, the EC50 in test [1] stood at 0.72 µg/mL.
